Biological target: Recombinant PP4R3β (His tagged SMEK2) (UniProt Q5MIZ7 1-849)
Test: ITC

Sequence of Recombinant PP4R3β (His tagged SMEK2) (Q5MIZ7 whole entry): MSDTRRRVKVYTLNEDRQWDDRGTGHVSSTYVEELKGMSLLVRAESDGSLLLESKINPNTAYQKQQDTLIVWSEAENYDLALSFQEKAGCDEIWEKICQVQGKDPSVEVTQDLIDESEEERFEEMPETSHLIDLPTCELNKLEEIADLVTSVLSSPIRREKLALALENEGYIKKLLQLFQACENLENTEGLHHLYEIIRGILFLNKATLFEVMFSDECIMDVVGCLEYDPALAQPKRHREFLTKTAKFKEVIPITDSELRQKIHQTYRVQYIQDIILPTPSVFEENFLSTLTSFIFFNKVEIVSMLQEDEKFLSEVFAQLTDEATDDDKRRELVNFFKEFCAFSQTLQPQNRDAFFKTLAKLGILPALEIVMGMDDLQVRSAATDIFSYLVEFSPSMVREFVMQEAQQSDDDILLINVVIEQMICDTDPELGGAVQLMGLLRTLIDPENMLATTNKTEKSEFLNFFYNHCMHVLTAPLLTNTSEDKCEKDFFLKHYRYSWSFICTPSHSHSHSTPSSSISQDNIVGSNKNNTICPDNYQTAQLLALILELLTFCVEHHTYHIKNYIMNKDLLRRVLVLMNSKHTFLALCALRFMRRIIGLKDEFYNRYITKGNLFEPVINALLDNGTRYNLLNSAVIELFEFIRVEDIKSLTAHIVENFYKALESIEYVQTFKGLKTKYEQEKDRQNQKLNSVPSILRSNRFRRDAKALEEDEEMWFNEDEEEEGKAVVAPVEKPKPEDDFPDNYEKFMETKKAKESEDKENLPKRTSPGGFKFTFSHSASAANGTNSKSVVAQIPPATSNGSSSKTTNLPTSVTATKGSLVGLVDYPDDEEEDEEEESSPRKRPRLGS

Kd: 370 ± 30 nM
B1: GST-CT45A1 (natural protein, human, UniProt Q5HYN5 1-189, looked up)
chain: MTDKTEKVAVDPETVFKRPRECDSPSYQKRQRMALLARKQGAGDSLIAGSAMSKAKKLMTGHAIPPSQLDSQIDDFTGFSKDRMMQKPGSNAPVGGNVTSSFSGDDLECRETASSPKSQREINADIKRKLVKELRCVGQKYEKIFEMLEGVQGPTAVRKRFFESIIKEAARCMRRDFVKHLKKKLKRMI
